Where no end group is shown, it is not given here. TMR‑5‑maleimide = tetramethylrhodamine-5-maleimide

B1: β-annulus-EE peptide (peptide)
peptide: INHVGGTGGAIMAPVAVTRQLVGSEE
notes: 24-residue β-annulus peptide involved in the formation of the dodecahedral internal skeleton of tomato bushy stunt virus (capsid protein); two anionic amino acids (Glu) added at the C-terminal side by design; Self-assembles into the anionic artificial viral capsid; also called 26-residue β-annulus-EE peptide; source: synthetic peptide (Fmoc solid-phase method, purified by reverse-phase HPLC)
B2: TMR-β-annulus-EE peptide (peptide)
peptide: C(TMR‑5‑maleimide)INHVGGTGGAIMAPVAVTRQLVGSEE
notes: Cys added at the N-terminus to carry the TMR dye; 24-residue β-annulus peptide involved in the formation of the dodecahedral internal skeleton of tomato bushy stunt virus (capsid protein); two anionic amino acids (Glu) added at the C-terminal side by design; also called Cys-β-annulus-EE peptide modified with TMR-maleimide; source: synthetic peptide (Fmoc solid-phase method; Michael addition of …)

Data set [1] deals with the molecule itself. Description: dynamic light scattering; 90 μM β-annulus-EE peptide and 10 μM TMR-β-annulus-EE peptide co-assembled (molar ratio 9:1) in 10 mM phosphate buffer (pH 7.0) containing 1% DMSO, 25 °C.
In data set [2] the target is B1. The data set is described as above. The conditions noted are these: both partners purified.

As to B1, the binding result in data set [1] was “binds”.
On to B2, for which the binding result in data set [2] is “binds”.
